Where two headings read alike, the source gives them in different places.
T1: LRETG (Staphylococcus aureus, UniProt Q2FV99, A104H/D160K/D165A/E105D/I182V/K138P/K152I/K162H/K173E/K190E/K196S/P94R/S102C/T164N)
T1 construct: All expressed sortases lack the N-terminal 59 amino acids; inferred from Ni-NTA purification; made in house; host or cells: E. coli BL21 (DE3), pET29
T1 sequence (Q2FV99 60-206 P94R/S102C/A104H/E105D/K138P/K152I/D160K/K162H/T164N/D165A/G167E/K173E/I182V/K190E/K196S): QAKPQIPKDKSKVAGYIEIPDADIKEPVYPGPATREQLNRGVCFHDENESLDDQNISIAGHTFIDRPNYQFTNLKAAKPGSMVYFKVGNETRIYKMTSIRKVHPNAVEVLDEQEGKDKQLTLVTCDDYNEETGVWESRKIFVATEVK

T2: LAETG (Abz-LAETGK(Dnp)-CONH2) (Staphylococcus aureus, UniProt Q2FV99, D160N/D165A/K190E/K196T/P94R)
T2 construct: All expressed sortases lack the N-terminal 59 amino acids; inferred from Ni-NTA purification; made in house; host or cells: E. coli BL21 (DE3), pET29
T2 sequence (Q2FV99 60-206 P94R/D160N/D165A/G167E/K190E/K196T): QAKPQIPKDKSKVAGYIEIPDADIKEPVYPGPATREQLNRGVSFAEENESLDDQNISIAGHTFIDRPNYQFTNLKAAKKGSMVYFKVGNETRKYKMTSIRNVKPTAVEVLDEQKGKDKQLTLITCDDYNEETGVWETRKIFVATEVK

T3: LPESG (Abz-LPESGK(Dnp)-CONH2) (Staphylococcus aureus, UniProt Q2FV99, D160N/D165A/K190E/K196T/P94R)
T3 construct: All expressed sortases lack the N-terminal 59 amino acids; inferred from Ni-NTA purification; made in house; host or cells: E. coli BL21 (DE3), pET29
T3 sequence (Q2FV99 60-206 P94R/D160N/D165A/G167E/K190E/K196T): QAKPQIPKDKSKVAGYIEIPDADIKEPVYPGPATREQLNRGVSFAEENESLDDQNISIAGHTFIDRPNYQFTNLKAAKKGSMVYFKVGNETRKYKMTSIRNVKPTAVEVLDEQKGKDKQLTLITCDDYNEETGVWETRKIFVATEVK

T4: LPETG (Abz-LPETGK(Dnp)-CONH2) (Staphylococcus aureus, UniProt Q2FV99, D160N/D165A/K190E/K196T/P94R)
T4 construct: All expressed sortases lack the N-terminal 59 amino acids; inferred from Ni-NTA purification; made in house; host or cells: E. coli BL21 (DE3), pET29
T4 sequence (Q2FV99 60-206 P94R/D160N/D165A/G167E/K190E/K196T): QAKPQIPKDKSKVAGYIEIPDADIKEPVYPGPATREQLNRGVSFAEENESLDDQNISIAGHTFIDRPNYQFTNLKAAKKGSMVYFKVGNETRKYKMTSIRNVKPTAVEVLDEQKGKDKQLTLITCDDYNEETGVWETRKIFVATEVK


How the values were obtained:
LRETG = target: T1, LRETG; test: In vitro sortase kinetics HPLC assay, LRETG substrate; type: biochemical
Description: (§1) See below for details on sortase expression and purification, and on the synthesis of Abz-LPETGK(Dnp)-CONH2 (SEQ ID NO: 19). […] Reactions were initiated with the addition of enzyme and incubated at 22.5° C. for 3 to 20 minutes before quenching with 0.5 volumes of 1 M HCl. Five to ten nmol of peptide from the quenched reactions were injected onto an analytical reverse-phase Eclipse XDB-C18 HPLC column (4.6×150 mm, 5 μm, Agilent Technologies) and chromatographed using a gradient of 10 to 65% acetonitrile with 0.1% TFA in 0.1% aqueous TFA over 13 minutes. Retention times under these conditions for the Abz-LPETGK(Dnp)-CONH2 (SEQ ID NO: 19) substrate, the released GKDnp peptide, and the Abz-LPETGGG-COOH (SEQ ID NO: 20) product were 12.8, 10.4, and 9.1 min, respectively. To calculate the percent conversion, the ratio of the integrated areas of the Abz-LPETGGG-COOH (SEQ ID NO: 20) and Abz-LPETGK(Dnp)-CONH2 (SEQ ID NO: 19) peptide Abs220 peaks was compared to a standard curve generated by mixing the product and starting peptide in known ratios. To determine […] and Km, reaction rates were fit to the Michaelis-Menten equation using OriginPro 7.0 software. All kinetics values reported represent the average of at least three measurements. Percent conversion was also calculated by using the ratio of the integrated areas of the GK(Dnp)-CONH2 and Abz-LPETGK(Dnp)-CONH2 peptide Abs355 peaks were compared directly (Example 5). To determine kcat and Km, LPETG, reaction rates were fit to the Michaelis-Menten equation using Microsoft Excel using the Solver add-in. To determine Km,GGG and KH, reaction rates were fit to the modified Michaelis-Menten, for which KH is as defined when KH<<Km,GGG.
Assays to determine eSrtA, eSrtA(2A-9) and eSrtA(4S-9) specificity were performed by preparing 10 μM stocks of Abz-LXEXGK(Dnp) (SEQ ID NO: 75) peptides in 300 mM Tris pH 7.5, 150 mM NaCl, 5 mM CaCl2, 5% v/v DMSO, and 100 mM Gly-Gly-Gly-COOH (GGG). Reactions were performed by adding eSrtA(2A-9) to a final concentration of 450 nM, eSrtA(4S-9) to a final concentration of 115 nM or eSrtA to a final concentration of 47.5 nM and a final volume of 100 μL, then incubating at 22.5° C. for 15 minutes. Reactions were quenched by the addition of 0.2 volumes of 5 M HCl, then were injected onto an analytical reverse-phase Eclipse XDB-C18 HPLC column (4.6×150 mm, 5 μm, Agilent Technologies) and chromatographed using a gradient of 10 to 65% acetonitrile with 0.1% TFA in 0.1% aqueous TFA over 13 minutes. […]

[1] = test system: LPETG (Abz-LPETGK(Dnp)-CONH2); conditions: cited from earlier work
[2] = target: T2, LAETG (Abz-LAETGK(Dnp)-CONH2); test: In vitro sortase kinetics HPLC assay, LAETG substrate; type: biochemical; conditions: candidate LAETG target
Method in brief: (§2)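 Abz-LXEXGK(Dnp) peptides in 300 mM Tris pH 7.5, 150 mM NaCl, 5 mM CaCl2, 5% DMSO, GGG; 22.5° C., acid-quenched, converted fraction by reverse-phase HPLC peak areas. kcat and Km from eight substrate concentrations fit to Michaelis-Menten; KH at 1 mM substrate over eight GGG levels.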

[3] = target: T3, LPESG (Abz-LPESGK(Dnp)-CONH2); test: In vitro sortase kinetics HPLC assay, LPESG substrate; type: biochemical; conditions: ratio of kcat/KM
Method in brief: as §2

[4] = target: T4, LPETG (Abz-LPETGK(Dnp)-CONH2); test: In vitro sortase kinetics HPLC assay, LPETG substrate; type: biochemical; conditions: cognate LPETG substrate
Method in brief: as §2

LPECG = test: In vitro sortase kinetics HPLC assay, LPECG substrate; type: biochemical
Description: as §1
Assays to determine eSrtA, eSrtA(2A-9) and eSrtA(4S-9) specificity were performed by preparing 10 μM stocks of Abz-LXEXGK(Dnp) (SEQ ID NO: 75) peptides in 300 mM Tris pH 7.5, 150 mM NaCl, 5 mM CaCl2, 5% v/v DMSO, and 100 mM Gly-Gly-Gly-COOH (GGG). Reactions were performed by adding eSrtA(2A-9) to a final concentration of 450 nM, eSrtA(4S-9) to a final concentration of 115 nM or eSrtA to a final concentration of 47.5 nM and a final volume of 100 μL, then incubating at 22.5° C. for 15 minutes. Reactions were quenched by the addition of 0.2 volumes of 5 M HCl, then were injected onto an analytical reverse-phase Eclipse XDB-C18 HPLC column (4.6×150 mm, 5 μm, Agilent Technologies) and chromatographed using a gradient of 10 to 65% acetonitrile with 0.1% TFA in 0.1% aqueous TFA over 13 minutes. Retention times under these conditions for the Abz-LPETGK(Dnp)-CONH2 (SEQ ID NO: 19) substrate, the released GKDnp peptide, and the Abz-LPETGGG-COOH (SEQ ID NO: 20) product were 12.8, 10.4, and 9.1 min, respectively, while the remaining Abz-LXEXGK(Dnp)-CONH2 (SEQ ID NO: 74) substrates varied in retention time between 9 and 13 minutes. To calculate the percent conversion, the ratio of the integrated areas of the GK(Dnp)-CONH2 and Abz-LPETGK(Dnp)-CONH2 (SEQ ID NO: 19) peptide Abs355 peaks were compared directly. Subsequent determination of kcat/Km and KH were performed as described for in vitro SrtA characterization.
The original pentamutant comprising the mutations P94R, D160N, D165A, K190E, and K196T is referred to as eSrtA. Sortase variants herein were evolved using eSrtA as the parent enzyme in the evolution experiments. In some cases, an evolved sortase comprises a N160K mutation instead of a D160N or a T196S mutation instead of a K196T. Parameters are reported with their standard deviations as determined from three technical replicates. kcat, Km and kcat/Km parameters were determined at 100 mM GGG concentration, while Km,GGG and KH parameters were determined at 1 mM concentration of the listed substrate.

[5] = Sub LPECG, 100 mM GGG, read-out: Km

| Molecule | KH (LRETG; 1 mM LRETG) [µM] | Km (LRETG; 1 mM LRETG, read-out: Km,GGG) [µM] | Kcat (Hz) (LRETG; Sub LRETG, 100 mM GGG) | Km (LRETG; Sub LRETG, 100 mM GGG, read-out: Km) [µM] | higher catalytic activity relative to wild-type SrtA [1] | Km [2] [mM] | preference for LPETG over LPESG [3] [fold] | Km [4] [µM] | activity for LPECG compared with LPETG (LPECG) | KH (LPECG; 1 mM LPECG) [µM] | Km (LPECG; 1 mM LPECG, read-out: Km,GGG) [mM] | Kcat (Hz) (LPECG; Sub LPECG, 100 mM GGG) | Km (LPECG; [5]) [mM] |
| --- | --- | --- | --- | --- | --- | --- | --- | --- | --- | --- | --- | --- | --- |
| eSrtA(2A-9): P94R, S102C, A104H, E105D, K138P, K152I, N160K, K162H, T164N, D165A, K173E, I182V, K190E, T196S (protein) QAKPQIPKDKSKVAGYIEIPDADIKEPVYPGPATREQLNRGVCFHDENESLDDQNISIAGHTFIDRPNYQFTNLKAAKPGSMVYFKVGNETRIYKMTSIRKVHPNAVEVLDEQEGKDKQLTLVTCDDYNEETGVWESRKIFVATEVK | 47.5 ± 1.3 | 628 ± 11 | 0.25 ± 0.02 | 1070 ± 63 |  |  |  |  |  |  |  |  |  |
| eSrtA (protein) QAKPQIPKDKSKVAGYIEIPDADIKEPVYPGPATREQLNRGVSFAEENESLDDQNISIAGHTFIDRPNYQFTNLKAAKKGSMVYFKVGNETRKYKMTSIRNVKPTAVEVLDEQKGKDKQLTLITCDDYNEETGVWETRKIFVATEVK |  |  |  |  | approximately 140 fold | 6.1 | 5 | 200 | exceeds that of LPETG | 620 ± 150 | 57 ± 33 | 3.5 ± 0.3 | 0.0725 ± 0.0056 |
| eSrtA(4S-9): P94R, N98D, S102C, A104V, A118T, F122A, K134R, F144L, D160N, D165A, I182V, E189F, K190E, K196T (protein) QAKPQIPKDKSKVAGYIEIPDADIKEPVYPGPATREQLDRGVCFVEENESLDDQNISITGHTAIDRPNYQFTNLRAAKKGSMVYLKVGNETRKYKMTSIRNVKPTAVEVLDEQKGKDKQLTLVTCDDYNFETGVWETRKIFVATEVK |  |  |  |  |  |  |  |  | exceeds that of LPETG | 120 ± 23 | 55 ± 1.4 | 5.0 ± 0.6 | 0.069 ± 0.013 |
